Experimental data from the nanobody polyreactivity screen of Harvey et al. (2022).

Assay: yeast display, Sf9 membrane polyspecificity reagent, FACS + sequencing; frameworks hold sequencing errors
Method in brief: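 Nanobodies from a synthetic yeast display library (Saccharomyces cerevisiae BJ5465), induced 36–48 hours with galactose, were stained 1 hour at 4 °C with 10% biotinylated, detergent-solubilized Sf9 membrane reagent, enriched on streptavidin microbeads, then FACS-sorted. Anti-HA (expression) and streptavidin (reagent binding) fluorescence set low and high (top ~1%) gates. Polyreactivity labels come from the gate of origin. Genes were colony-PCR amplified, MiSeq 2 × 250 sequenced and filtered by CDR length.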

| Sequence | polyreactivity (PSR sort gate) |
| --- | --- |
| QVQLVESGGGLVQAGGSLRLSCAASGFTFNFYAMGWYRQAPGKERELVASITSSGARTYYADSVKGRFTISRDNAKNTVYLQMNSLKPEDTAVYYCAARVYRYSASRAYDYWGQGTQVTVSS | high polyreactivity |
| QVQLVESGGGLVQAGGSLRLSCAASGRTFSRYVMGWYRQAPGKERELVATISDVGNTYYADSVKGRFTISRDNAKNTVYLQMNSLKPEDTAVYYCNRVYFTSRQGQMYYWGQGTQVTVSS | high polyreactivity |
| QVQLVESGGGLVQAGGSLRLSCASSGSTFRYYAMGWYRPPPGKEREWVAVITSGGSTYYADSVKGRFTISRDNAKNTVSLQMNSLKPEDTAVDYCAAVYAFYVDFDYWGQGTQVTVSS | low polyreactivity |
| QVQLVESGGGLVQAGGSLRLICAASGSTFLGYAMGWYRQAPGKERELVAAITYSAGSTYYADSVKGRFTISRDNAKNTVYLQMNSLKPEDTAVYYCAKRYSGYDHWGQGTQVTVSS | low polyreactivity |
| QVQLEESGVGLVQAGGSLRLSCAASGSIFPAYAMGSYRQAPGKERELLAAITFSGGRTYYADSVKGRLTISRDNAKNTFYLQMNSLKPEDTAVYYCAAYGAPSGTGAKYGYWGQGTQVTVSS | low polyreactivity |
| QVQLVESGGGLVQAGGSLRLSCAASGSIFFIYAMAWYRQAPGKERELVATISRSDVSTFYADSVKGRFTISRDNAKNTVYLQMNSLKPEDTAVYYCAARTGRGDRTRRYYYWGQGTQVTVSS | high polyreactivity |
| QVQLVESGGGLVQAGGSLRLSCAASGSTFAYNAMGWYRQAPGKERELVAAISSSGTSTYYADSVKGRFTISRDYAKNTVYLQMNSLKTEDTAVYYCAARSAILKSGYLMDYWGQGTQVTVSS | low polyreactivity |
| QVQLVESGGGLVQAGGSLRLSCAASGSTFYIHAMGWNRQAPGKERELVAAISATGTRTYYADSVKGRFTISRDNAKNTFYLQMNSLKPEDTAVYYWNAVYWYWWVITYVGPGLGYWGQVTQVTVSS | high polyreactivity |
| QVQLVDSGGGLVQAGGSLRLSCAASGFTFVPYAMGWYRQAPGKERETNADSVKGRFTISRDNAKNTVYLQMNSLKPEDTAVYYCAAGGYGPYDYWGQGTQVTVSS | low polyreactivity |
| QVQLVESGGGLVQAGGSLRLSCAASGFTFRRYAMGWYRQAPGKERELVAAITRNGGSTYYADSVKGRFTISRDNAKNTVYLQMNRLKPEDTAVYYCNAVLYTPVYDGFDSWGQGTQVTVSS | high polyreactivity |
| QVQLVESGGGLVQAGGSLRLSCAASGSTFAYYVMGWYRQAPGKERELVAAITSSGGRTYYADSVKGRFTISRDNAKNTVYLQMNSQKPEDTAVYYCAKVSQRRVDNSDYDYWGQGTQVTVSS | high polyreactivity |
| QDQLVESGGGLDQAGGSLRLICAASGRIFIYYAMGWYRQAPGKETELVAAISSTGTTNYADSVKGRFTISRDNAKNTVYLQMTSLKPEDTAVYFCAARVRTATRRFTSYSWGQGTQVTVSS | high polyreactivity |
| QVQLVESGGGLVQAGGSLRLSCAASGFTFRSYTMGWYIQAPGKERELVATITWNGGSTYYADSVKGRFTISRDNAKNTVYLQMNSLKPEDTAVYYCAADPPWNFWNYYRMDYWGQGTQVTVSS | low polyreactivity |
| QVQLVESGGGLVQAGGSLRLSCAASGLTFDNNAMGWYRQAPGTERELVAAISYRGSSTYYADSVKGRFTISRDNAKNTVYLQMNSLKPEDTAVYYCAADVVDLGRFDYWGQRTQVTVSS | low polyreactivity |
| QVQLVESGRGLVQAGGSLRLSCAASGFIFAYYAMGWYRQAPGKERELVAAITRSGGGTKYADSVKGRFTISRDNAKNTVYLHMNSLKPEDTAVYYCAARWYRQLRDLDYWGQGTQVTVSS | high polyreactivity |
| QVQIVESGGGLVQAGGSLRLTCAASGFTFYKKAMGWYIQAPGKERELVAAITSSGGSTYYADSVKGRFTISRDNAKNTVYLQMNSLKPEDTAVYYCAAYPQAYIADYDYWGQGTQVTVSS | low polyreactivity |
| QFQLVESGGGLVPARGSLRLSCAASGLIFKRNAMGWYRQAPGKERELDASNSGRGGSTYYADSLTGRFTISRDNAKKTVYLQMNSLKPEDTAVYFCAADGPPLGRPSYRLFYGYDYWGQGSQVTVSS | high polyreactivity |
